Several values for one entry are separate records, joined by “and”; a condition that tells them apart may be missing. Equal entries are not always repeated.

Holding throughout (conditions): remark: other sources report otherwise
Test [1] deals with full-length human UBR5 (construct for single-particle analysis: 10xHis, 3C site, UBR5, double strep tag) (human) (UniProt O95071). Nature of the test: cryo-EM structure.
Test [2] shares this target. Nature of the test: mass photometry.
For test [3] the target is unchanged. Nature of the test: mass photometry. This is another data set of the same source.

Broadly, the stoichiometry N is the number of molecules, sites or subunits per partner or assembly. With “full-length human UBR5 (construct for single-particle analysis: 10xHis, 3C site, UBR5, double strep tag), O95071 1-2799”, the stoichiometry N in test [1] is 4 and 2; in test [2] it was 2; in test [3], 4.

The values above are taken from paper doi:10.1101/2022.11.03.515015.
